This note sets out measurements from patent US20090098076A1, “Method For the Production of a Keratin-Binding Effector Molecule” (BASF SE, priority 2005, published 2009).

The target in test [1] is human hair keratin (human hair, cut into 5 mm sections) (human). The test can be described thus: quantitative hair binding test, loss relative to untreated hair after 10% strength SDS treatment.
Test [2] has the same target. The test can be described thus: quantitative hair binding test, anti-polyHis peroxidase conjugate, TMB; protein denatured (not renatured).
For test [3], the target named is human skin keratin (human). The test can be described thus: quantitative skin binding test (human keratinocytes in microtiter plates), anti-His antibody, TMB; after 10% strength SDS treatment. The settings on record: scale: absorption at 405 nm, standardized to the surface.
Test [4] deals with human skin keratin (human). Kind of test: quantitative skin binding test, loss relative to untreated skin after 10% strength SDS treatment.
For test [5], the target named is human skin keratin (human). The test can be described thus: quantitative skin binding test (human keratinocytes in microtiter plates), anti-His antibody, TMB. The conditions noted are these: scale: absorption at 405 nm, standardized to the surface.
The target in test [6] is human hair keratin (human hair, cut into 5 mm sections) (human). Kind of test: quantitative hair binding test, anti-polyHis peroxidase conjugate, TMB; protein renatured.
Test [7] relates to hair (human). Kind of test: Quantitative binding to hair (KBD activity test hair, Example 10). The conditions noted are these: for measured absorption values at 405 nm (quantitative KBD activity test hair): human hair, detection via His tag with antibody-peroxidase conjugate and TMB; for binding to hair, KBD-B compared with comparison protein: binding test on hair, result in words. The procedure: In this test, hair was firstly incubated with KBD and excess KBD was washed off. An antibody-peroxidase conjugate was then coupled via the His tag of the KBD. Nonbound antibody-peroxidase conjugate was washed off again. The bound anti body-peroxidase conjugate [Monoclonal AntipolyHistidine Peroxidase Conjugate, produced in mouse, lyophilized powder, Sigma] can convert a colorless substrate (TMB) into a colored product, which can be measured photometrically at 405 nm. The intensity of the absorption indicates the amount of bound KBD or comparison protein. The comparison protein chosen was, for example, YaaD from B. subtilis, which likewise had—as is necessary for this test—a His tag for the detection. Instead of the His tag, other specific antibodies conjugated with peroxidase can also be used.
(or at least 2 h at room temperature) with gentle swinging movements. • Centrifugation, removal of the supernatant • 3× washing with PBS […] • Incubation with 1 ml monoclonal mouse anti-tag (His6 or HA) antibodies with peroxidase:conjugate (1:2000 in PBS/0.05% Tween 20) [Monoclonal AntipolyHistidine Peroxidase Conjugate, produced in mouse, lyophilized powder, Sigma] for 2-4 h at room temperature, gentle swinging movement • 3× washing with PBS/0.05% Tween 20 • Addition of peroxidase substrate (1 ml/Eppendorf vessel) • Allow reaction to proceed until blue coloration (about 2 minutes). • Stop the reaction with […] of 2 M H2SO4. • The absorption is measured at 405 nm.
Peroxidase Substrate (Prepare Shortly Beforehand):
0.1 ml TMB solution (42 mM TMB in DMSO) +10 ml of substrate buffer (0.1 M sodium acetate pH 4.9) +14.7 μl H2O2 3% strength BSA=Bovine serum albumin PBS=Phosphate buffered salt solution
Tween 20=polyoxyethylene sorbitan monolaureate, n about 20
TMB=3,5,3′,5′-tetramethylbenzidine

Test [8] concerns human keratinocytes. The test can be described thus: Quantitative binding to skin (Example 15). The procedure: (§1) In order to investigate the binding strength of the KBD-D (SEQ ID No.:168) to skin and hair compared to the KBD-B (SEQ ID No.:166), a quantitative test was carried out. In this test firstly hair was incubated with KBD-B or KBD-D and excess KBD-D or -D was washed off. An antibody-peroxidase conjugate was then coupled via the His/tag of the KBD-B or -D. Nonbound antibody-peroxidase conjugate was washed off again. The bound antibody-peroxidase conjugate can convert a colorless substrate (TMB) into a colored product, which was measured photometrically at 405 nm. The intensity of the absorption indicates the amount of bound KBD-B or -D.
The test for binding to skin was carried out with human keratinocytes in microtiter plates as follows. • 2× washing with PBS/0.05% Tween 20 • addition of 1 ml of 1% BSA in PBS and incubation for 1 h at room temperature, gentle swinging movements (900 rpm). • removal of the supernatant • addition of 100 μg of KBD in PBS with 0.03% Tween 20; incubation for 2 h at room temperature and gentle swinging movements (900 rpm). • removal of the supernatant • 3× washing with PBS/0.05% Tween 20 • incubation with 1 ml of monoclonal mouse anti-tag-His6 antibodies for 2-4 h at room temperature, gentle swinging movement (900 rpm) • 3× washing with PBS/0.05% Tween 20 • addition of peroxidase substrate (1 ml/Eppendorf vessels composition see below) reaction until a blue coloration (about 90 seconds). • reaction stopped with 100 μl of 2 M H2SO4. • the absorption was measured at 405 nm.
(§2) Peroxidase Substrate (Prepared Shortly Beforehand):
0.1 ml TMB solution (42 mM TMB in DMSO) +10 ml substrate buffer (0.1 M sodium acetate pH 4.9) +14.7 μl H2O2 3% strength

In test [9] the test system is hair (human). The test can be described thus: Quantitative binding to hair (Example 15). The settings on record: relative to untreated hair. How it is done:
as §1
In order to characterize the hair binding of the KBD-D compared to the KBD-B, the following binding assay was carried out:
5 mg of hair (human) were cut into sections 5 mm in length and transferred to Eppendorf vessels (protein low-bind). • addition of 1 ml of ethanol for degreasing • centrifugation, removal of ethanol and washing of the hair with H2O • centrifugation, removal of the supernatant • addition of the keratin-binding domains to be tested (coupled to tag—e.g. His6, HA etc.) in 1 ml of PBS/0.05% Tween 20; incubation for 2 h at room temperature with gentle swinging movements • centrifugation, removal of the supernatant • 3× washing with PBS/0.05% Tween 20 • incubation with 1 ml monoclonal mouse anti-tag-(His6 or HA) antibodies with peroxidase conjugate (1:2000 in PBS/0.05% Tween 20) [Monoclonal AntipolyHistidine Peroxidase Conjugate, produced in mouse, lyophilized powder, Sigma] for 2-4 h at room temperature, gentle swinging movement • 3× washing with PBS/0.05% Tween 20 • addition of peroxidase substrate (1 ml/Eppendorf vessel) • allow reaction to proceed until blue coloration (90 seconds). • stop the reaction with 100 μl of 2 M H2SO4.
The absorption was measured at 405 nm
as §2
0.1 ml TMB solution (42 mM TMB in DMSO) +10 ml substrate buffer (0.1 M sodium acetate pH 4.9) +14.7 μl H2O2 3% strength BSA=bovine serum albumin PBS=phosphate buffered salt solution Tween 20=polyoxyethylene sorbitan monolaureate, n about 20 TMB=3,5,3′,5′-tetramethylbenzidine

The subject of test [10] is hair. The test can be described thus: Hair-binding activity of KBD-B-panthenol (Example 24a). How it is done: In order to check whether KBD-B also binds with coupled panthenol to hair, a quantitative binding assay was carried out (see FIG. 6): In this test, hair was firstly incubated with KBD-B-panthenol and nonbound KBD-B-panthenol was washed off. A peroxidase was then coupled via the His tag of the KBD-B. Nonbound peroxidase was washed off again. The bound peroxidase can convert a colorless substrate (TMB) into a colored product which was measured photometrically at 405 nm. The intensity of the absorption indicates the amount of bonded KBD-B-panthenol. As comparison sample, KBD-B without panthenol was chosen.
Only above a mixing ratio of 1:4 does the hair binding activity decrease. Coupling to lysines or cysteines present in the protein structure which is no longer selective could be responsible for this, which could lead to an unfolding and thus poorer hair coupling of the protein.

The target in test [11] is human hair keratin (human hair, cut into 5 mm sections) (human). Kind of test: quantitative hair binding test, anti-polyHis peroxidase conjugate, TMB.

B1: KBD-B (keratin-binding domain B of human desmoplakin), expressed by the vector pQE30-KBD-B in E. coli (SEQ ID No.: 166) (protein)
chain: MRGSHHHHHHGSACELEPHTGLLLLSVQKRSMSFQGIRQPVTVTELVDSGILRPSTVNELESGQISYDEVGERIKDFLQGSSCIAGIYNETTKQKLGIYEAMKIGLVRPGTALELLEAQAATGFIVDPVSNLRLPVEEAYKRGLVGIEFKEKLLSAERAVTGYNDPETGNIISLFQAMNKELIEKGHGIRLLEAQIATGGIIDPKESHRLPVDIAYKRGYFNEELSEILSDPSDDTKGFFDPNTEENLTYLQLKERCIKDEETGLCLLPLKEKKKQVQTSQKNTLRKRRVVIVDPETNKEMSVQEGVDLQPSLIS
B1: the Relative absorption loss after 10% strength SDS treatment in % stood at 86% in test [1] and 80% in test [4]. Besides, the Absorption at 405 nm in test [2] worked out at 0.254 A405 nm; in test [3], 0.185; in [5], 0.93; in [6], 1.59 A405 nm.

B2: KBD-B denatured: KBD-B (SEQ ID No.: 166) from inclusion bodies, not renatured (protein, listed as Homo sapiens)
chain: MRGSHHHHHHGSACELEPHTGLLLLSVQKRSMSFQGIRQPVTVTELVDSGILRPSTVNELESGQISYDEVGERIKDFLQGSSCIAGIYNETTKQKLGIYEAMKIGLVRPGTALELLEAQAATGFIVDPVSNLRLPVEEAYKRGLVGIEFKEKLLSAERAVTGYNDPETGNIISLFQAMNKELIEKGHGIRLLEAQIATGGIIDPKESHRLPVDIAYKRGYFNEELSEILSDPSDDTKGFFDPNTEENLTYLQLKERCIKDEETGLCLLPLKEKKKQVQTSQKNTLRKRRVVIVDPETNKEMSVQEGVDLQPSLIS
modifications: denatured
Turning to B2, the “measured absorption values at 405 nm (quantitative KBD activity test hair)” value (from here on “measured absorption values at 405 nm”) in [7] is listed as “A405 nm = 0.254”.

B3: KBD-B: keratin-binding domain B of human desmoplakin with N-terminal His tag, SEQ ID No.: 166, expressed in E. coli (protein, listed as Homo sapiens)
chain: MRGSHHHHHHGSACELEPHTGLLLLSVQKRSMSFQGIRQPVTVTELVDSGILRPSTVNELESGQISYDEVGERIKDFLQGSSCIAGIYNETTKQKLGIYEAMKIGLVRPGTALELLEAQAATGFIVDPVSNLRLPVEEAYKRGLVGIEFKEKLLSAERAVTGYNDPETGNIISLFQAMNKELIEKGHGIRLLEAQIATGGIIDPKESHRLPVDIAYKRGYFNEELSEILSDPSDDTKGFFDPNTEENLTYLQLKERCIKDEETGLCLLPLKEKKKQVQTSQKNTLRKRRVVIVDPETNKEMSVQEGVDLQPSLIS
For B3, the “Relative absorption loss after 10% strength SDS treatment in %, skin” value in test [8] (relative to untreated skin) turned out to be 80%. Also, the “Absorption at 405 nm, binding to skin after 10% strength SDS treatment” value in test [8] (values standardized to the surface, after 10% strength SDS treatment) came to 0.185. For the same molecule, the “Absorption at 405 nm, binding to skin” value in test [8] (values standardized to the surface, no SDS treatment) is given as 0.93. The “Relative absorption loss after 10% strength SDS treatment in %, hair” value in test [9] came to 86%. In addition, the “binding to hair, KBD-B compared with comparison protein” value in [7] is recorded as “considerable superiority”.

B4: KBD-B renatured: KBD-B (SEQ ID No.: 166) renatured by dialysis (protein, listed as Homo sapiens)
chain: MRGSHHHHHHGSACELEPHTGLLLLSVQKRSMSFQGIRQPVTVTELVDSGILRPSTVNELESGQISYDEVGERIKDFLQGSSCIAGIYNETTKQKLGIYEAMKIGLVRPGTALELLEAQAATGFIVDPVSNLRLPVEEAYKRGLVGIEFKEKLLSAERAVTGYNDPETGNIISLFQAMNKELIEKGHGIRLLEAQIATGGIIDPKESHRLPVDIAYKRGYFNEELSEILSDPSDDTKGFFDPNTEENLTYLQLKERCIKDEETGLCLLPLKEKKKQVQTSQKNTLRKRRVVIVDPETNKEMSVQEGVDLQPSLIS
modifications: renatured
Take B4: the “measured absorption values at 405 nm” value in [7] is listed as “A405 nm = 1.591”.

B5: panthenol-coupled KBD-B: KBD-B (SEQ ID No.: 166) coupled via the maleimidocaproic acid linker with panthenol, Example 22 (conjugate, listed as Homo sapiens)
chain: MRGSHHHHHHGSACELEPHTGLLLLSVQKRSMSFQGIRQPVTVTELVDSGILRPSTVNELESGQISYDEVGERIKDFLQGSSCIAGIYNETTKQKLGIYEAMKIGLVRPGTALELLEAQAATGFIVDPVSNLRLPVEEAYKRGLVGIEFKEKLLSAERAVTGYNDPETGNIISLFQAMNKELIEKGHGIRLLEAQIATGGIIDPKESHRLPVDIAYKRGYFNEELSEILSDPSDDTKGFFDPNTEENLTYLQLKERCIKDEETGLCLLPLKEKKKQVQTSQKNTLRKRRVVIVDPETNKEMSVQEGVDLQPSLIS
modifications: maleimidocaproic linker-panthenol conjugate
For B5, in test [10] (FIG. 7), the “influence of coupling reaction temperature on hair binding activity” value is recorded as “no decisive influence”. Further, the “hair binding activity of the coupled protein” value in [10] (above a KBD-B:panthenol mixing ratio of 1:4 (FIG. 7)) is listed as “decrease”; in test [10] (up to a KBD-B:panthenol mixing ratio of 1:2, compared with KBD-B without panthenol (FIG. 7)), “remains virtually constant”.

B6: Comparison protein YaaD from B. subtilis (His-tagged) (protein, UniProt P37527 1-294, looked up)
chain: MAQTGTERVKRGMAEMQKGGVIMDVINAEQAKIAEEAGAVAVMALERVPADIRAAGGVARMADPTIVEEVMNAVSIPVMAKARIGHIVEARVLEAMGVDYIDESEVLTPADEEFHLNKNEYTVPFVCGCRDLGEATRRIAEGASMLRTKGEPGTGNIVEAVRHMRKVNAQVRKVVAMSEDELMTEAKNLGAPYELLLQIKKDGKLPVVNFAAGGVATPADAALMMQLGADGVFVGSGIFKSDNPAKFAKAIVEATTHFTDYKLIAELSKELGTAMKGIEISNLLPEQRMQERGW
B6 displayed an Absorption at 405 nm in test [11] of 0.088 A405 nm. In test [7], the “binding to hair, KBD-B compared with comparison protein” value is on record as “significantly poorer binding” and the “measured absorption values at 405 nm” value is listed as “A405 nm = 0.088”.
